# Source: patent publication US20180201951A1
# Target: interleukin 1 receptor 1 (Il1r1), murine (mouse) (UniProt P13504)
# Test: cell-based or functional assay
# UniProt P13504, sequence (P13504 20-576): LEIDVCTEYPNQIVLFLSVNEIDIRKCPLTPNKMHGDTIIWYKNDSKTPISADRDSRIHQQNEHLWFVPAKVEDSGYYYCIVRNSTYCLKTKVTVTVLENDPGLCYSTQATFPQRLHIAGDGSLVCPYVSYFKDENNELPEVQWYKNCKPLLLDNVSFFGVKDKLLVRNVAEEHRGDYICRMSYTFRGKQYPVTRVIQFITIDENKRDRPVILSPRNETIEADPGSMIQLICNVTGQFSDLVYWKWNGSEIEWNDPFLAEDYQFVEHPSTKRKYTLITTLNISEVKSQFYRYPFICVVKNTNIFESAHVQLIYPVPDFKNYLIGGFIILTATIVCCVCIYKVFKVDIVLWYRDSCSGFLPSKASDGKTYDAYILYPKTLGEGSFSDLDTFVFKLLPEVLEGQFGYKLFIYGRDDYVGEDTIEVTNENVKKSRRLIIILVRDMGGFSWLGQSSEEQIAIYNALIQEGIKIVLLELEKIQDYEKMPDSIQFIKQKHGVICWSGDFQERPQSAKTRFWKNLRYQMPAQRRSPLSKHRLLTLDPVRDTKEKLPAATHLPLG
substance,measurement,value
IL-1α (ligand),"NF-κB transcriptional activity (luciferase reporter), fold induction after IL-1α stimulation of Il1r1+/- cells",4.8 fold
same,"NF-κB transcriptional activity (luciferase reporter), fold induction after IL-1α stimulation of wild-type (Il1r1+/+) cells",6.3 fold
